Test results: US20220143148A1, “COMPOSITIONS AND METHODS FOR MODULATING CGRP SIGNALING TO REGULATE INTESTINAL INNATE LYMPHOID CELLS” (The Broad Institute, Inc., priority 2019, published 2022)

Tested on: small intestinal immune cells
Experiment: Droplet-based scRNA-seq of small intestinal immune cells (LP and PP), OVA vs PBS, clustering and differential expression
Type: in vivo, mouse
Text: To comprehensively characterize small intestinal immune cells, Applicants generated scRNA-Seq profiles for 58,067 immune cells collected from lamina propria (LP) and Peyer's patch (PP) regions at steady state and after induction of a type 2 inflammatory reaction to ovalbumin (OVA) (Brandt et al., 2003) (FIGS. 1A and 8A). To ensure sufficient representation of rare cells, Applicants combined a normalization strategy—removing by flow sorting either a portion of IgD+ naïve B cells, which are the most abundant cell type in PPs, or all CD19+ and CD3+ T cells (FIG. 8B, Methods)—with profiling of a sufficiently large number of cells number (P>0.99 to recover at least 15 cells from each cluster, Methods) by massively parallel scRNA-seq (Haber et al., 2017) (Methods). Applicants obtained 36,797 and 21,270 high quality cells passing initial filtering (Methods) from PP and LP regions, respectively.
Overall, Applicants annotated 27 cell subsets across the two compartments, spanning T cells, B cells, ILCs, dendritic cells (DCs), myeloid cells and stromal cells, in frequencies ranging from 0.07% to 14%. Briefly, Applicants first partitioned the cells from the PP regions by unsupervised clustering (Methods) into 46 clusters, retained the 97% of cells that were robustly assigned cell identities in each cluster (Methods), assigned the cells from the LP regions to the 46 clusters using a classifier (Methods), and visualized the data with scvis (Ding et al., 2018), a deep generative model-based method (FIGS. 1B and 8C, Methods). Next, Applicants identified genes that were differentially expressed between the cells in each cluster and the remaining cells (Table 1, Methods), as well as between pairs of clusters (Table 2), to elucidate identities of similar cell types/states. Applicants excluded from downstream analysis clusters mostly consisting of contaminants from epithelium, likely doublets, or cells with a small number of Unique Molecular Identifiers (UMIs) (FIGS. 1C and 8D), or lacking distinct markers (Methods). Altogether, Applicants retained 27 clusters spanning 85% of the cells and each associated with distinct marker genes (FIG. 8E, Methods).
To induce allergic reaction to OVA, 6 to 7 weeks old mice were sensitized twice, two weeks apart, with 50 μg of OVA plus 1 mg of aluminum potassium sulfate adjuvant via intraperitoneal injection. Two weeks later, mice were orally administered with 50 mg of OVA on every other day for a total of five times. 1 μg of α-CGRP peptide was administered simultaneously when indicated. Mice were deprived of food for 3-4 hours in cages with wood chip bedding for limiting antigen degradation in the stomach before each intragastric challenge.
Isolation of cells from Peyer's patches (PPs). Peyer's patches (PPs) were carefully dissected from the small intestine under a stereo microscope using a fine scissor, pierced once with a fine forcep. Tissues were digested in freshly made digestion buffer (RPMI-1640 containing 100 μg/ml Liberase™ and 50 μg/ml DNase I at 37° C. on a roto-mixer. After 15 min, tissues were very gently mixed using a 1 ml pipette. The supernatant was collected and added to ice-cold MACS buffer (pH 7.4; PBS plus 2% FCS and 2 mM EDTA). Pre-warmed (37° C.) fresh digestion buffer was added to the remaining tissues. After rotation at 37° C. for 15 min, the mixture was vigorously mixed using a 1 ml pipette for 1 min. Supernatants from the two steps were combined and passed through 70 μm filters and stained for FACS (below).
Isolation of cells from the lamina propria (LP). The small intestines were opened longitudinally and washed in ice-cold PBS. For scRNA-seq, roughly 0.5 cm of fragments from each of the distal, middle and proximal regions without visible PPs were collected. Epithelial cells were dissociated by tissue rotation in pre-warmed (37° C.) PBS containing 10 mM EDTA at 37° C. for 15 min, followed by additional incubation on ice for 15 min. Tissues were then shaken vigorously. […]

B1: OVA (protein, UniProt P01012 2-386, looked up)
Ovalbumin: GSIGAASMEFCFDVFKELKVHHANENIFYCPIAIMSALAMVYLGAKDSTRTQINKVVRFDKLPGFGDSIEAQCGTSVNVHSSLRDILNQITKPNDVYSFSLASRLYAEERYPILPEYLQCVKELYRGGLEPINFQTAADQARELINSWVESQTNGIIRNVLQPSSVDSQTAMVLVNAIVFKGLWEKAFKDEDTQAMPFRVTEQESKPVQMMYQIGLFRVASMASEKMKILELPFASGTMSMLVLLPDEVSGLEQLESIINFEKLTEWTSSNVMEERKIKVYLPRMKMEEKYNLTSVLMAMGITDVFSSSANLSGISSAESLKISQAVHAAHAEINEAGREVVGSAEAGVDAASVSEEFRADHPFLFCIKHIATNAVLFFGRCVSP
D16Ertd472e: LN (average fold change) (cluster ID 4, PP, OVA vs PBS): −0.412
Dnaja1: LN (average fold change) (cluster ID 4, PP, OVA vs PBS): −0.300
Dnajb9: LN (average fold change) (cluster ID 4, PP, OVA vs PBS): −0.322
Egln3: LN (average fold change) (cluster ID 4, PP, OVA vs PBS): −0.350
Fam46a: LN (average fold change) (cluster ID 4, PP, OVA vs PBS): −0.500
Fibp: LN (average fold change) (cluster ID 4, PP, OVA vs PBS): −0.268
Furin: LN (average fold change) (cluster ID 4, PP, OVA vs PBS): −0.203
Gatad1: LN (average fold change) (cluster ID 4, PP, OVA vs PBS): −0.316
Gcnt2: LN (average fold change) (cluster ID 4, PP, OVA vs PBS): −0.352
Gimap3: LN (average fold change) (cluster ID 4, PP, OVA vs PBS): 0.275
Git2: LN (average fold change) (cluster ID 4, PP, OVA vs PBS): 0.350
Gnb1: LN (average fold change) (cluster ID 4, PP, OVA vs PBS): −0.255
H2-T23: LN (average fold change) (cluster ID 4, PP, OVA vs PBS): −0.260
Herpud1: LN (average fold change) (cluster ID 4, PP, OVA vs PBS): −0.214
Icos: LN (average fold change) (cluster ID 4, PP, OVA vs PBS): −0.291
Il2ra: LN (average fold change) (cluster ID 4, PP, OVA vs PBS): 0.378
Il18r1: LN (average fold change) (cluster ID 4, PP, OVA vs PBS): 0.193
Irf2: LN (average fold change) (cluster ID 4, PP, OVA vs PBS): 0.312
Irs2: LN (average fold change) (cluster ID 4, PP, OVA vs PBS): −0.372
Itgav: LN (average fold change) (cluster ID 4, PP, OVA vs PBS): −0.394
Klf13: LN (average fold change) (cluster ID 4, PP, OVA vs PBS): −0.255
Klrk1: LN (average fold change) (cluster ID 4, PP, OVA vs PBS): −0.613
Leng9: LN (average fold change) (cluster ID 4, PP, OVA vs PBS): −0.375
Map3k14: LN (average fold change) (cluster ID 4, PP, OVA vs PBS): −0.515
Mast4: LN (average fold change) (cluster ID 4, PP, OVA vs PBS): −0.207
Mbnl2: LN (average fold change) (cluster ID 4, PP, OVA vs PBS): −0.436
Minos1: LN (average fold change) (cluster ID 4, PP, OVA vs PBS): 0.218
Morf4l2: LN (average fold change) (cluster ID 4, PP, OVA vs PBS): −0.252
Neat1: LN (average fold change) (cluster ID 4, PP, OVA vs PBS): 0.447
Nedd8: LN (average fold change) (cluster ID 4, PP, OVA vs PBS): 0.234
Plekhg1: LN (average fold change) (cluster ID 4, PP, OVA vs PBS): −0.229
Ppp1r16b: LN (average fold change) (cluster ID 4, PP, OVA vs PBS): −0.157
Ppp2ca: LN (average fold change) (cluster ID 4, PP, OVA vs PBS): −0.432
Ptger2: LN (average fold change) (cluster ID 4, PP, OVA vs PBS): 0.347
Ptpn7: LN (average fold change) (cluster ID 4, PP, OVA vs PBS): 0.323
Raf1: LN (average fold change) (cluster ID 4, PP, OVA vs PBS): 0.457
Ramp3: LN (average fold change) (cluster ID 4, PP, OVA vs PBS): −0.380
Rassf5: LN (average fold change) (cluster ID 4, PP, OVA vs PBS): 0.506
Rcn2: LN (average fold change) (cluster ID 4, PP, OVA vs PBS): −0.225
Rel: LN (average fold change) (cluster ID 4, PP, OVA vs PBS): −0.354
Rgs1: LN (average fold change) (cluster ID 4, PP, OVA vs PBS): −0.221
Rgs3: LN (average fold change) (cluster ID 4, PP, OVA vs PBS): 0.447
Rnf19b: LN (average fold change) (cluster ID 4, PP, OVA vs PBS): −0.242
Rpa3: LN (average fold change) (cluster ID 4, PP, OVA vs PBS): 0.541
S100a6: LN (average fold change) (cluster ID 4, PP, OVA vs PBS): 0.370
S100a10: LN (average fold change) (cluster ID 4, PP, OVA vs PBS): 0.215
Saraf: LN (average fold change) (cluster ID 4, PP, OVA vs PBS): −0.187
Sat1: LN (average fold change) (cluster ID 4, PP, OVA vs PBS): 0.222
Scn1b: LN (average fold change) (cluster ID 4, PP, OVA vs PBS): −0.273
Sec11a: LN (average fold change) (cluster ID 4, PP, OVA vs PBS): 0.283
Serpina3g: LN (average fold change) (cluster ID 4, PP, OVA vs PBS): 0.347
Serpinb6b: LN (average fold change) (cluster ID 4, PP, OVA vs PBS): −0.432
Ssna1: LN (average fold change) (cluster ID 4, PP, OVA vs PBS): 0.346
Taf7: LN (average fold change) (cluster ID 4, PP, OVA vs PBS): −0.409
Taf10: LN (average fold change) (cluster ID 4, PP, OVA vs PBS): −0.422
Tagap: LN (average fold change) (cluster ID 4, PP, OVA vs PBS): 0.423
Tcrg-C1: LN (average fold change) (cluster ID 4, PP, OVA vs PBS): 0.484
Tgoln1: LN (average fold change) (cluster ID 4, PP, OVA vs PBS): −0.209
Timm13: LN (average fold change) (cluster ID 4, PP, OVA vs PBS): 0.230
Tnf: LN (average fold change) (cluster ID 4, PP, OVA vs PBS): 0.465
Trim8: LN (average fold change) (cluster ID 4, PP, OVA vs PBS): 0.530
Trps1: LN (average fold change) (cluster ID 4, PP, OVA vs PBS): −0.444
Tsc22d3: LN (average fold change) (cluster ID 4, PP, OVA vs PBS): 0.359
Tspan32: LN (average fold change) (cluster ID 4, PP, OVA vs PBS): 0.324
Ttc19: LN (average fold change) (cluster ID 4, PP, OVA vs PBS): −0.499
Tuba4a: LN (average fold change) (cluster ID 4, PP, OVA vs PBS): −0.342
Tubb4b: LN (average fold change) (cluster ID 4, PP, OVA vs PBS): −0.252
Txk: LN (average fold change) (cluster ID 4, PP, OVA vs PBS): −0.188
Vegfa: LN (average fold change) (cluster ID 4, PP, OVA vs PBS): −0.252
VgIl4: LN (average fold change) (cluster ID 4, PP, OVA vs PBS): −0.302
Zc3hav1: LN (average fold change) (cluster ID 4, PP, OVA vs PBS): −0.303
Zfand5: LN (average fold change) (cluster ID 4, PP, OVA vs PBS): −0.245
1810037l17Rik: percentage of expressing cells in OVA-treated group (cluster ID 5, PP): 0.446
Bcl2: percentage of expressing cells in OVA-treated group (cluster ID 5, PP): 0.863
